Among the data in PMC8020655 are Kd values, retold here.

pKd: −log10 of the molar value.

This assay concerns the target His6-PopA_(R357G) labelled with Atto-488 (Caulobacter crescentus). Put plainly: MST.

Substance “His6-SmrF (from UniProt A0A0H3C860 1-122) (natural protein)” gave a pKd of 5.29.
